In patent US20240173421A1 (Seagen, published 2024):
Where two headings read alike, the source gives them in different places.

Legend:
[1] = target: T1, CD16a (FcγRIIIa) on Jurkat NFAT reporter cells (UniProt P08637 17-254, limits assumed); assay: cell-based or functional assay
[2] = target: FcgRIa (NFAT activity assay) (UniProt P12314 16-374); assay: cell-based or functional assay
[3] = target: T2, FcgRIIa (NFAT activity assay) (UniProt P12318 34-317); assay: cell-based or functional assay
T2 sequence (looked up): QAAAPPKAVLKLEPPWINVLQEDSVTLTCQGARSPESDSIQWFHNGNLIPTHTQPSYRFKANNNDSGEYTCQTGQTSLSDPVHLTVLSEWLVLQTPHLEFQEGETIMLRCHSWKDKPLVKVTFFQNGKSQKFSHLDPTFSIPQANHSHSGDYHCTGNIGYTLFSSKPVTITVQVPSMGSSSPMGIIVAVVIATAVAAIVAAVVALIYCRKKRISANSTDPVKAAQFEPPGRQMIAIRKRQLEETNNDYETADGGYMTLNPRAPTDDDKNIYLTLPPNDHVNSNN

[4] = target: T1, CD16a (FcγRIIIa) on Jurkat NFAT …; assay: cell-based or functional assay; remark: listed apart in the source
[5] = target: T3, FcgRIIb (human, UniProt P31994 43-217, biotinylated); assay: BLI, FcγR-monomeric Fc fusion on streptavidin sensor
T3 sequence (looked up): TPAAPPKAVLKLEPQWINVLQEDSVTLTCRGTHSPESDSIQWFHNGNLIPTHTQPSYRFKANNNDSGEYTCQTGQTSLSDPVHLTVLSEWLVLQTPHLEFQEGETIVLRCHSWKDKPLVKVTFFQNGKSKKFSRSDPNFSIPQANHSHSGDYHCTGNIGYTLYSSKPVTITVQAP

[6] = target: T1, CD16a (FcγRIIIa) on Jurkat NFAT …; assay: cell-based or functional assay; remark: listed apart in the source
[7] = target: T1, CD16a (FcγRIIIa) on Jurkat NFAT …; assay: cell-based or functional assay; remark: listed apart in the source
[8] = target: T1, CD16a (FcγRIIIa) on Jurkat NFAT …; assay: cell-based or functional assay; remark: listed apart in the source
[9] = target: T1, CD16a (FcγRIIIa) on Jurkat NFAT …; assay: cell-based or functional assay; remark: listed apart in the source
[10] = target: T1, CD16a (FcγRIIIa) on Jurkat NFAT …; assay: cell-based or functional assay; remark: listed apart in the source

T1 sequence (P08637 17-254 limits assumed): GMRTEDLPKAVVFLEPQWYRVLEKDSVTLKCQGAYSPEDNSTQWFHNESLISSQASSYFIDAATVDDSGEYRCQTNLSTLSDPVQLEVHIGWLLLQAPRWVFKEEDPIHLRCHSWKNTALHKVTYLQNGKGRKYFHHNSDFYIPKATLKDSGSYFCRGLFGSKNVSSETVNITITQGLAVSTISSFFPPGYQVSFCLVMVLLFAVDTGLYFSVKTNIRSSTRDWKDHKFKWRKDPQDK
Sequence of FcgRIa (NFAT activity assay) (P12314 16-374): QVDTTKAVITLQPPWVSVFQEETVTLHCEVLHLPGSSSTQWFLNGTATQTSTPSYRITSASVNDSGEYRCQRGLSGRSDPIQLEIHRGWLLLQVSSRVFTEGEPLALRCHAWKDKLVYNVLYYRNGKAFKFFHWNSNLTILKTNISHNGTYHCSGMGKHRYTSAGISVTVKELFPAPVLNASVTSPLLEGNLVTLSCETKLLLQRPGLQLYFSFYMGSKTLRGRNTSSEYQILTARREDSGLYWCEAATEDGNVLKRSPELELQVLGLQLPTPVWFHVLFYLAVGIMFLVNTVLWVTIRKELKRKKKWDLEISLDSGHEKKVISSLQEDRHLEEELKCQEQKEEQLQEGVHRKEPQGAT

B1: Anti-CD40-WT (antibody, human IgG1, kappa)
heavy: not shown
light: DIQMTQSPSSLSASVGDRVTITCRSSQSLVHSNGNTFLHWYQQKPGKAPKLLIYTVSNRFSGVPSRFSGSGSGTDFTLTISSLQPEDFATYFCSQTTHVPWTFGQGTKVEIKRTVAAPSVFIFPPSDEQLKSGTASVVCLLNNFYPREAKVQWKVDNALQSGNSQESVTEQDSKDSTYSLSSTLTLSKADYEKHKVYACEVTHQGLSSPVTKSFNRGEC
B1 was tested, and the “EC50, NFAT activity assay” value [1] was 0.16 µg/mL, the “EC50, NFAT activity assay” value [2] was 0.09 µg/mL and the “EC50, NFAT activity assay” value [3] was 0.08 µg/mL.

B2: Anti-CD40-AF-10 (antibody, human IgG1, kappa)
heavy: not shown
light: DIQMTQSPSSLSASVGDRVTITCRSSQSLVHSNGNTFLHWYQQKPGKAPKLLIYTVSNRFSGVPSRFSGSGSGTDFTLTISSLQPEDFATYFCSQTTHVPWTFGQGTKVEIKRTVAAPSVFIFPPSDEQLKSGTASVVCLLNNFYPREAKVQWKVDNALQSGNSQESVTEQDSKDSTYSLSSTLTLSKADYEKHKVYACEVTHQGLSSPVTKSFNRGEC
modifications: reduced interchain-disulfide cysteine carries compound 10; afucosylated N-glycan; reduced interchain-disulfide cysteines carry compound 10 (maleimidopropionyl-PEG48)
In the case of B2, the “EC50, NFAT activity assay” value [1] is reported as 2.09 µg/mL, the “EC50, NFAT activity assay” value [2] is reported as 3.73 µg/mL and the “EC50, NFAT activity assay” value [3] is reported as 227 µg/mL.

B3: Anti-CD40-AF-17 (antibody, human IgG1, kappa)
heavy: not shown
light: DIQMTQSPSSLSASVGDRVTITCRSSQSLVHSNGNTFLHWYQQKPGKAPKLLIYTVSNRFSGVPSRFSGSGSGTDFTLTISSLQPEDFATYFCSQTTHVPWTFGQGTKVEIKRTVAAPSVFIFPPSDEQLKSGTASVVCLLNNFYPREAKVQWKVDNALQSGNSQESVTEQDSKDSTYSLSSTLTLSKADYEKHKVYACEVTHQGLSSPVTKSFNRGEC
modifications: reduced interchain-disulfide cysteine carries compound 17; afucosylated N-glycan; reduced interchain-disulfide cysteines carry compound 17 (maleimidocaproyl-(PEG4)2)
In the case of B3, the “EC50 (read off the curve), FcγRIIIa NFAT reporter assay” value (“EC50 … FcγRIIIa NFAT reporter assay” for short) [4] is reported as about 7 ng/mL.

B4: Anti-CD40-AF-9(8) (antibody, human IgG1, kappa)
heavy: not shown
light: DIQMTQSPSSLSASVGDRVTITCRSSQSLVHSNGNTFLHWYQQKPGKAPKLLIYTVSNRFSGVPSRFSGSGSGTDFTLTISSLQPEDFATYFCSQTTHVPWTFGQGTKVEIKRTVAAPSVFIFPPSDEQLKSGTASVVCLLNNFYPREAKVQWKVDNALQSGNSQESVTEQDSKDSTYSLSSTLTLSKADYEKHKVYACEVTHQGLSSPVTKSFNRGEC
modifications: reduced interchain-disulfide cysteine carries compound 9; afucosylated N-glycan; reduced interchain-disulfide cysteines carry compound 9 (maleimidopropionyl-PEG12)
B4 was tested, and the “EC50, NFAT activity assay” value [1] was 0.22 µg/mL, the “EC50, NFAT activity assay” value [2] was 0.35 µg/mL and the “EC50, NFAT activity assay” value [3] was 14.3 µg/mL.

B5: Anti-CD40-AF-1(6) (antibody, human IgG1, kappa)
heavy: not shown
light: DIQMTQSPSSLSASVGDRVTITCRSSQSLVHSNGNTFLHWYQQKPGKAPKLLIYTVSNRFSGVPSRFSGSGSGTDFTLTISSLQPEDFATYFCSQTTHVPWTFGQGTKVEIKRTVAAPSVFIFPPSDEQLKSGTASVVCLLNNFYPREAKVQWKVDNALQSGNSQESVTEQDSKDSTYSLSSTLTLSKADYEKHKVYACEVTHQGLSSPVTKSFNRGEC
modifications: afucosylated N-glycan; compound 1 (disulfide-PEG12) on reduced interchain-disulfide cysteines, 6 per antibody, sites not stated
notes: 6 BPM per antibody; also called Anti-CD40-AF-1 6-load
B5 was tested, and the Kd [5] was 25 µM.

B6: Anti-CD40-AF-12 with 4 load (antibody, human IgG1, kappa)
heavy: not shown
light: DIQMTQSPSSLSASVGDRVTITCRSSQSLVHSNGNTFLHWYQQKPGKAPKLLIYTVSNRFSGVPSRFSGSGSGTDFTLTISSLQPEDFATYFCSQTTHVPWTFGQGTKVEIKRTVAAPSVFIFPPSDEQLKSGTASVVCLLNNFYPREAKVQWKVDNALQSGNSQESVTEQDSKDSTYSLSSTLTLSKADYEKHKVYACEVTHQGLSSPVTKSFNRGEC
modifications: afucosylated N-glycan; compound 12 (maleimidocaproyl-PEG12) on reduced interchain-disulfide cysteines, 4 per antibody, sites not stated
B6 was tested, and the “EC50 … FcγRIIIa NFAT reporter assay” value [6] was about 2 ng/mL.

B7: Anti-CD40-AF-1(2) (antibody, human IgG1, kappa)
heavy: not shown
light: DIQMTQSPSSLSASVGDRVTITCRSSQSLVHSNGNTFLHWYQQKPGKAPKLLIYTVSNRFSGVPSRFSGSGSGTDFTLTISSLQPEDFATYFCSQTTHVPWTFGQGTKVEIKRTVAAPSVFIFPPSDEQLKSGTASVVCLLNNFYPREAKVQWKVDNALQSGNSQESVTEQDSKDSTYSLSSTLTLSKADYEKHKVYACEVTHQGLSSPVTKSFNRGEC
modifications: afucosylated N-glycan; compound 1 (disulfide-PEG12) on reduced interchain-disulfide cysteines, 2 per antibody, sites not stated
notes: 2 BPM per antibody; also called Anti-CD40-AF-1 2-load
For B7, the “EC50 … FcγRIIIa NFAT reporter assay” value [7] was about 3 ng/mL and the Kd [5] was 21 µM.

B8: Anti-CD40-AF-1(8) (antibody)
heavy: not shown
light: DIQMTQSPSSLSASVGDRVTITCRSSQSLVHSNGNTFLHWYQQKPGKAPKLLIYTVSNRFSGVPSRFSGSGSGTDFTLTISSLQPEDFATYFCSQTTHVPWTFGQGTKVEIKRTVAAPSVFIFPPSDEQLKSGTASVVCLLNNFYPREAKVQWKVDNALQSGNSQESVTEQDSKDSTYSLSSTLTLSKADYEKHKVYACEVTHQGLSSPVTKSFNRGEC
modifications: reduced interchain-disulfide cysteine carries compound 1; afucosylated N-glycan; reduced interchain-disulfide cysteines carry compound 1 (disulfide-PEG12)
For B8, the “EC50 … FcγRIIIa NFAT reporter assay” value [8] was about 7 ng/mL.

B9: Anti-CD40-AF-1(4) (antibody, human IgG1, kappa)
heavy: not shown
light: DIQMTQSPSSLSASVGDRVTITCRSSQSLVHSNGNTFLHWYQQKPGKAPKLLIYTVSNRFSGVPSRFSGSGSGTDFTLTISSLQPEDFATYFCSQTTHVPWTFGQGTKVEIKRTVAAPSVFIFPPSDEQLKSGTASVVCLLNNFYPREAKVQWKVDNALQSGNSQESVTEQDSKDSTYSLSSTLTLSKADYEKHKVYACEVTHQGLSSPVTKSFNRGEC
modifications: afucosylated N-glycan; compound 1 (disulfide-PEG12) on reduced interchain-disulfide cysteines, 4 per antibody, sites not stated
notes: 4 BPM per antibody; also called Anti-CD40-AF-1 4-load
B9 was tested, and the Kd [5] was 22 µM.

B10: Anti-CD40-AF-12 with 2 load (antibody, human IgG1, kappa)
heavy: not shown
light: DIQMTQSPSSLSASVGDRVTITCRSSQSLVHSNGNTFLHWYQQKPGKAPKLLIYTVSNRFSGVPSRFSGSGSGTDFTLTISSLQPEDFATYFCSQTTHVPWTFGQGTKVEIKRTVAAPSVFIFPPSDEQLKSGTASVVCLLNNFYPREAKVQWKVDNALQSGNSQESVTEQDSKDSTYSLSSTLTLSKADYEKHKVYACEVTHQGLSSPVTKSFNRGEC
modifications: afucosylated N-glycan; compound 12 (maleimidocaproyl-PEG12) on reduced interchain-disulfide cysteines, 2 per antibody, sites not stated
With B10 the “EC50 … FcγRIIIa NFAT reporter assay” value [6] was about 1 ng/mL.

B11: Anti-CD40-AF (afucosylated) (antibody, human IgG1, kappa)
heavy: not shown
light: DIQMTQSPSSLSASVGDRVTITCRSSQSLVHSNGNTFLHWYQQKPGKAPKLLIYTVSNRFSGVPSRFSGSGSGTDFTLTISSLQPEDFATYFCSQTTHVPWTFGQGTKVEIKRTVAAPSVFIFPPSDEQLKSGTASVVCLLNNFYPREAKVQWKVDNALQSGNSQESVTEQDSKDSTYSLSSTLTLSKADYEKHKVYACEVTHQGLSSPVTKSFNRGEC
For B11, the “EC50, NFAT activity assay” value [1] was 0.05 µg/mL, the “EC50, NFAT activity assay” value [2] was 0.07 µg/mL and the “EC50, NFAT activity assay” value [3] was 0.09 µg/mL. For the same binder, the “EC50 … FcγRIIIa NFAT reporter assay” value [4] was about 1 ng/mL, the “EC50 … FcγRIIIa NFAT reporter assay” value [9] was about 1 ng/mL and the “EC50 … FcγRIIIa NFAT reporter assay” value [7] was about 10 ng/mL. For the same binder, the “EC50 … FcγRIIIa NFAT reporter assay” value [6] was about 10 ng/mL and the “EC50 (read off the curve), CD16a NFAT reporter assay” value [10] was about 3 ng/mL.
